# Data: article PMC4498904, “Mutagenesis Study Reveals the Rim of Catalytic Entry Site of HDAC4 and -5 as the Major Binding Surface of SMRT Corepressor” (PLoS ONE, 2015)
# B1: KGC-HDAC4c (C-terminal portion of Kusabira Green protein fused with HDAC4c), wild type [human] / KGN-SRD3c (N-terminal portion of Kusabira Green protein fused with SRD3c) [human] (parent)
# chain 1: PRFTTGLVYDTLMLKHQCTCGSSSSHPEHAGRIQSIWSRLQETGLRGKCECIRGRKATLEELQTVHSEAHTLLYGTNPLNRQKLDSKKLLGSLASVFVRLPCGGVGVDSDTIWNEVHSAGAARLAVGCVVELVFKVATGELKNGFAVVRPPGHHAEESTPMGFCYFNSVAVAAKLLQQRLSVSKILIVDWDVHHGNGTQQAFYSDPSVLYMSLHRYDDGNFFPGSGAPDEVGTGPGVGFNVNMAFTGGLDPPMGDAEYLAAFRTVVMPIASEFAPDVVLVSSGFDAVEGHPTPLGGYNLSARCFGYLTKQLMGLAGGRIVLALEGGHDLTAICDASEACVSALLGNELDPLPEKVLQQRPNANAVRSMEKVMEIHSKYWRCLQRTTSTAGRSLIEAQTCENEEAET
# chain 2: EGGMSVTQCSKEDGRSSSGPPHETAAPKRTYDMMEGRVGRAISSASIEGLMGRAIPPERHSPHHLKEQHHIRGSITQGIPRSYVEAQEDYLRREAKLLKREGTPPPPPPSRDLTEAYKTQALGPLKLKPAHEGLVATVKEAGRSIHEIPREELRHTPELPLAPRPLKEGSITQGTPLKYDTGASTTGSKKHDVRSLIGSPGRTFPPVHPLDVMADARALERACY
# B2: KGC-HDAC5c (C-terminal portion of Kusabira Green protein fused with HDAC5c), wild type [human] / KGN-SRD3c (N-terminal portion of Kusabira Green protein fused with SRD3c) [human] (parent)
# chain 1: LFTTGVVYDTFMLKHQCMCGNTHVHPEHAGRIQSIWSRLQETGLLSKCERIRGRKATLDEIQTVHSEYHTLLYGTSPLNRQKLDSKKLLGPISQKMYAVLPCGGIGVDSDTVWNEMHSSSAVRMAVGCLLELAFKVAAGELKNGFAIIRPPGHHAEESTAMGFCFFNSVAITAKLLQQKLNVGKVLIVDWDIHHGNGTQQAFYNDPSVLYISLHRYDNGNFFPGSGAPEEVGGGPGVGYNVNVAWTGGVDPPIGDVEYLTAFRTVVMPIAHEFSPDVVLVSAGFDAVEGHLSPLGGYSVTARCFGHLTRQLMTLAGGRVVLALEGGHDLTAICDASEACVSALLSVELQPLDEAVLQQKPNINAVATLEKVIEIQSKHWSCVQKFAAGLGRSLREAQAGETEEAETVS
# chain 2: B1 chain 2
# Variants of: B1
# Assay: BiFC assay (fluorescence spectrophotometer)
# Conditions: HEK293 cells, KGN-SRD3c (1 μg) and KGC-HDAC4c mutant (1 μg), 48 hours of transfection, whole cell lysates, parent: 8, read off a plot
row,Variant,response [RFU]
1,chain 1 C18Y,5
2,chain 1 C102Y,4.5
3,chain 1 C20Y,4.1
4,chain 1 H193L,4.3

# Variants of: B2
# Assay: BiFC assay (fluorescence spectrophotometer)
# Conditions: HEK293 cells, KGN-SRD3c (1 μg) and KGC-HDAC5c mutant (1 μg), 48 hours of transfection, whole cell lysates, parent: 9.3, read off a plot
row,Variant,response [RFU]
1,chain 1 C17W,4.4
2,chain 1 C102Y,4.7
3,chain 1 H193R,4
